Assays:
Substance P (SP) [1] = target: T1, Substance P (SP) (UniProt P20366); details: equilibrium dialysis rough estimate at 20 uM RNA, fraction bound 0.017
T1 sequence: RPKPQQFFGLM

Substance P (SP) [2] = target: T2, Substance P (SP) (UniProt P20366); experiment: high affinity class 3 ligand; single-point equilibrium dialysis, Kd value only in figure; details: protein: synthetic; tags: synthetic peptide, C-terminal amide; Sigma; 3H-SP from NEN
T2 chain: RPKPQQFFGLM
Protocol: Equilibrium dialysis experiments were performed with a Spectra/Por® (Spectrum; Houston, Tex.) equilibrium dialyzer, Spectra/Por® (Spectrum; Houston, Tex.) microcell dialysis chambers (200-µl chamber volumes), and 12000–14000 MWCO dialysis membranes (Spectrum; Houston, Tex.). These membranes allow passage of SP but not 107-nt RNAs. Sample volumes were 200 µl on each side of the membrane (i.e., 200 µl per chamber). All experiments were at room temperature in 1× SP binding buffer. RNAs (unlabeled) were denatured prior to re-equilibration in binding buffer as described above for Experiment B. For binding curves (FIG. 4), RNA concentrations between 50 nM and 20 µM were utilized. Single point K_d estimates for individual Experiment B ligands were performed with 200 nM or 1 µM RNA. […] Equilibrium dialysis initiated with ^3H-SP on one side of the membrane and in the absence of RNA was performed to determine the length of time required to attain equilibrium (~2.5 hours for Spectra/Por®-2 membranes); dialysis times for binding measurements were at least one hour longer than this determined time. Following equilibration, samples were withdrawn from the dialysis chambers, added to scintillation fluid, and counted.

GGGAGCUCAGAAUAAACGCUCAANNNNNNNNNNNNNNNNNNNNNNNNNNNNNNNNNNNNNNNNNNNNNNNNNNNNNNNNNNNNUUCGACAUGAGGCCCGGAUCCGGC [unselected 60N RNA pool]
Kd (Substance P (SP) [1]): 1.2 mM

B1: ligand B32 (ssRNA)
RNA: GGGAGCUCAGAAUAAACGCUCAAAAAGGCACUGACCACCCUCAGGAAGAAUAACCGCGGUCACCCGCAUCCGAGUCUAUCAAUUUCGACAUGAGGCCCGGAUCCGGC
binding result (Substance P (SP) [2]): binds
